Measurements published in a protein production outcome set (Wang et al. 2014).

assay: label from the status in PepcDB records

Protein production, not failed:
MISPELVKEALKKKKVRSEEAFGLEYLRFNDDYKDIPRGTAIFKDFIIWGYPHIGRIFLLETGLREQFEAPFWVEEKVDGYNTRIFKYGDNYYALSRGGFICPFTTDRLPDLIDLRILDENPDLVICAEVAGPENPYIEESPPYVKEDVQLFVFDFMKKNEQGFLSQEEKMELIEKYNLPHVEILGRFTASEEGIKKIKEILKRFNEEGREGVVFKEDSERNKRAKYITSYANLMDIKTNAKNMLQLPPEYYTNRILRLVLFMYEEGLKTTEHLYEELGRAFIDGLFQAIEQFEKEHKVYKTFTCKFRKKENAIALLELLSKTSKHIQVKERRLEKEGDYWRLEFDKVFLNMTGLLGHLLSGGIVYD, MISVCIATYNGEKYLAEQLDSILLQVSEEDELIISDDGSTDHTLEILRTYAANYPQIQLLQGPGQGVIANFAFALTHTKGEVIFLADQDDVWLPNKVTTVTEYFETHPDIQVVISDLKIVDADLQVTNPSYFKFRKVKPGFWRNAIKSGYIGAGMAFRQEMKNVILPIPPEVPMHDMWIGLLAARKKQTGLIKEPLVLYRRHGANVSPIITKTSFQQKLNWRVNLLKALHQRLKEQRLEHHHHHH, MITDCCPGFGSVAKYIAVSMLEASFDVASMAKTSTKVFILEVMGRHAGWIAAAGGLASNEDHEVPIIILFPEVTFDQEKFLAKTDHYVKEYGYCTVVVSEGVKGTDGKFLSDQGLRDAFGHAQLGGVAPVIANIVKNGLGLEHHHHHH, MITDEHIELFLAQAHRYGDAKLMLCSSGNLSWRIGEEALISGTGSWVPTLAKEKVSICNIASGTPTNGVKPSMESTFHLGVLRERPDVNVVLHFQSEYATAISCMKNKPTNFNVTAEIPCHVGSEIPVIPYYRPGSPELAKAVVEAMLKHNSVLLTNHGQVVCGKDFDQVYERATFFEMACRIIVQSGGDYSVLTPEEIEDLEIYVLGKKTK, MITMKISSRFSIAVHILSILKNNPSSLCTSDYMAESVNTNPVVIRKIMSYLKQAGFVYVNRGPGGAGLLKDLHEITLLDVYHAVNVVEEDKLFHIHEQPNPDCPIGANIQAVLEIILIQAQSAMEEVLRNITMGQLFETLQEKMNA, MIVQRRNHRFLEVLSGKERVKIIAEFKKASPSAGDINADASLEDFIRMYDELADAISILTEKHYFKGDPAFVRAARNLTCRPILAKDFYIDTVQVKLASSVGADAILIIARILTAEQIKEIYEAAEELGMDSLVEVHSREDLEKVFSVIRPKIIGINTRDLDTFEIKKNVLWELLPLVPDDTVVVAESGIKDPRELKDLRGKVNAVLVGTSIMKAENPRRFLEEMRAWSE

Protein production, failed:
MIRYLALLALLAAPWVQAADALHDDLPLKYLEQAPAEPRNQPLVIFLHGYGSNEADLFGLRQRLPASYTYVSVRAPQTLEEGSYQWFHRKGQGPYDGVTSELASGAELIGQFVRAALAKYQTQPDKVVLVGFSQGAVMAYEVGLRHPQSVRGIAALSGKILPVLAAQVKNNPSLQRLGIFIGHGTLDQRLPYSDAVDAQRLLQGLSLQPQFHAYPGLGHSISEAEIDDLKGWLQGLNP, MISANDLSPAELAALLHFHADAGVEWLLEEEAIDRFAEFEAMKAARRPAAQAQQQRPAAGERPAPGQAQVRPNAAVRPAPAERAASGPQPAIPDGEAVQQARFVAETARSLVELKTAIESFNGCNLKHSARSTIFASGDAESGIMVIGSAPSAEDDREGMPFSGKSGQLFDKMLAAIGLTRSAILLTQVIPWRPPGNRAPSAAEMDICRPFIERQIALAEPKAILLLGNFSARFFFGENDTIHGLRGRWKEIAAADCVIPAIASLHPQDLLTAPVNKRLAWNDLLAFQAKLKSLSLLRN, MISKFIEKRMLNMLDEWYSAMSKRKMNHVCTLKEKIDQHLPKIKKNTKLWMRYQLFQARHQLLFENQNGLDSLFDGLYGLEDKMDDELKYYLYFFSGLYEMVKTAPKHAVHHFKKAEQYLAAIHNTFEAADLYYQTAGAYYLMKSPPLSVQYVKKALHIYLHQFGYIKKVITCKLLLAVNYIDQERYEKAEQLFKEIIKKTQQLHDENLLCHAYYNLGFLKATEKKDQEALLYFRKVLKNQEFEMNSPVSYLHCVYESVRALFKTGNITEAKAVLQKGKELSEKVDIQTIYLKLKTLEALYTSAEDPYEQLLEYVLELEKIEAWVDLEVLLEDITEYYKKKDDFEKAAFFIMRG, MISNEEMKSGNILNLFCKFALPAVVGVLIAGIQGIIDGFFIGNAIGSHGLAGITLAYPPYLAIIAAGIIIGIGSSSLIALRLGEGKTGEALEIMNNAFPLCLIAGAVFTAGGLIFCRTSISLLGTNGPALSLASEYLHIIFAGSVFMILAIALDPLVRNNGKPRLCMKIMVAGVLANIILDYLLVMHMEMGMSGAATATVLSFVLPAVLLTHHLLSSQAKLRLRIKSMRVKTATALKILNAGVPSFVMQMSFALMLFVQNYMLLRYGSELAVSAYGVIGYIFSIFYMLFEGIALGVQPIIGFNYGAGNYGRVLKTLKLTILSCTLIGALGFTLIYLFPESLVQIFSQRDSELLDATLQGMDIFMFSLLVEGTVLLTAVYYQSINRVRAALFIHLGKIFIFLFPLLFILPHFFDLNGVWAASPATEYLMAAVVMVMLSKEFDFLRNSRKVEIKQPVTLKITSEVTSKHETSASRNTVKTGNEECTGFIPFKHTEREAS, MISNFIKRAITGILFVAILVGCILYNSFSFGILFMAISALTIYEFGQLINSRAEGVNVNKTIIMLGGAYLFLAVMGFCIDAADSKIFIPYLLLLLYLMISELYLKKASSMLNWAYSMLSQLYIGLPFALLNVLAFHTDPEYSSVSYNPILPLSIFIFLWLSDTGAYCVGSLIGKHRLFERISPKKSWEGSIGGGVVAIGASFVLAHYFTIMSMWEWAGLALVVVVFGTWGDLTESLLKRQLHVKDSGTILPGHGGMLDRFDSALMAIPAAVFYLYALTWF, MISNKRRPKIKIWNKEQMALYLKAIKKDRLYAAFVTDSKSGLRKSELLALRWSDIDFSTGLTKIERGWVRSPKGTLYLSDLKSENSERTLVFSTDLLKVLLEHKSRQDEEKKTAGKNYIDNGLVFCREDGSYINPSTFTRRHYDLTAKAKLPRISVHALRHSISTALLESGKVDLKQIQEMLGHKDISTTGNYYTDVLERMKQKTSELIDNLIQTELEHHHHHH, MISNNTRRVYRISFSFFEQYCLEHNLQSLPADPRSIISFIGHQKELLQASTGMQLSKQTLTTRIAAIRFYHIQAGFPTPTEHPQVIRVMRGLSRNHHRLVQDYDQQPLEHHHHHH, MISRRTFALAAVASVLLGGTFVGAKAGLSYLPPLLFVALRFDIAAVVLLGYVVVTRSRDELLPRTRGDVLGILSTGLFALGLANALIFVGQQSATSAVAAIIFSLNPILTPVFAAILLSDERLSARGGLGMVIGLLGVGLVVSPDPAMLLSGGIGKLILFAGAASAALGSVLIRWSGGGLSSTVRTAWALPVAAALCHALSIGMGESAATAVWSPTAIAALLYVGIFAGAIAYIAYFGLLDVTGAIQANLIFYVVPVVSTLGGWALLGEAITPTAVAGFLTIFTGFVVLGSESVDIRALLPATTDEGDTVSESLGIADEQRGFESD, MITIDALGQVCPIPVIRAKKALAELGEAGGVVTVLVDNDISRQNLQKMAEGMGYQAEYLEKDNGVIEVTIVAGEGCAVETSGTAADSGLVVAIGRNTMGEGSEELGRILLKGFIYSLRELTPPPARLLFFNSGAHLTSKDSNSIEDLKAMAAQGTIIQTCGTCLNYYGITEQLAVGQVANMYDIVTAMTEAKRLINI, MITLAVRLKNLAFLLIAVLALSFLGIRYADLGRYVGVADYYTVDVHLPRTGGLFTHSDVTYRGVSVGRVGPIDLTAEGVVAELRIKKSAPRIPADTKAVVAGLSAVGEQYIDLRPESDGSPYLADGTRIEQADTEVPAPVTDVLTSVDDLASSVPLEDLRTVVDEFGKAFDGHGDDLQVLLDSGSDFVEAADRALPSTTLLINDGETVLRTQAQEARAIRDFAVGAKDLAAALKGSDADLRRLLAVTPEAATQVSGLLRDLDPSLGVVLANLLTTSEVAVTRQRGIEELLVKYPAAVSAGATAVDGGKLDLGLAVTFFSPLPCTDGYGGTRYRNGLDLGTAPALNTDAACTAPASGGKNVRGSANAPKSGAVPDPATPGSLPSGGGRTTPAGGGSPARDGSTALPGALALPGQSGEAPAGLTGLLAPAAGGARLEHHHHHH, MITLTKEGGPADLDGVTHLSIGVSWDPTAGSSGGVLGKLRRKTGTDLDLIAVAMQGGDPVRLAGLDSLDPMGNGSLLHSGDNQTGHGDGDDETVTVEFARLPSAITSIVFVAAAYKKGSSFQKARNISFKVYDATGGSSEQVADIWPSLLSQDNGCAVAKAVRVGGTWKLEVVNETGKIKQGDEHALMRFAVSK, MITRLTDIELEQIRGVIFDLDGTLAHSNPDFKGLRAALGIGSGTDILEHIHSLETTVAKMQALEIVHDYELESSRQASWIEGAQALIAFLKTRQLPLAILTRNMPEAAKITIEKLGIDIPLVLTRYDAEPKPHPQGIYLICEQWQLNPADILYVGDYLFDLQTAQNAGSRCALYCPEDVPDYAQAADLLVSCYHSLIQAWPK, MITSRSTGELVIPVSRRINNKDGNFGGVFLVTLRVQYFSRFYADFRMDEQGVIVLADQNGTIMVRHPFDTNMIGRNIAKGDIFSKYLPHASRGVHMVVAITDKVERMYGYERLNRYPLVVLAGKSKRAILGSWYESLYGSLIMLCLILPIPVLFATLISRQIKTTLKVEDELRLAYAAVEAIAMQDSLTGLANRRQLDVVLPAEIKRAKRTSQPLGVIMVDIDYFKRYNDYYGHPAGDLCIKAIANVLKNHTRRAGNLAARYGGEELTVLLPSCDQAAVLAAAERIVESIRGLQIAHDDSPEGYLTVSVGAYSYSAFNKEVDASGLLKCADDALYAAKQAGRNRARLSA, MIVDFETHFITEACIDYLTQRQEVPKLVPDLNGAYTMCFTPDVSLFHTSALMEELLSLNEQRLAIMDQAGVTIQVLSLTTINGIDSCPGDENKSTALAREVNDQLYSAIQRHPERFKGFASISPYDVKEGVKELERAISQLGFVGWLTHSNFGQDNYLDDKTYWPLLEAAEGLNIPIYLHPNVPIMREFGKYGFALGGSALGFEFDTALCLMRMILGGVFDAFPKLKIMLGHLGETMPFLMERLDHLYRIPDLKAYRPSIQRIPSEVLRQNVYITTSGRFFVPALRYVLEVMGEDRVLFASDYPMESLLDATRFIQDSDLSNQTKQKIFSINAKNLNLILEHHHHHH, MIVFDGHNDVLTELVRAGGRAAAGGFLSGLPGQLDLPRARAGGFGGGFFALWARSEGATDFSTLGPEYDLPLPEPVPEAQAWEMIRAQADTLVALEEAGAVRICTSTAQIARARDEGLLGAILHLEGAEGIGPDFYELEELYALGLRSLGPVWSRPNAFGHGVPFRYPSGPDIGPGLTERGRALIARCEELRILIDLSHLNLAGFREVAALSKRPLVATHSNAHARVPHARNLTDEQLRIMAESGGLAGVNFESTFLRPDGRPDDDIPAAWLLAQFDHLLDRLGEEGVAIGSDYDGCTPPAWLNSVDKLPALIAAMERHGYPAARIERICWGNWMRVLAETWGESA, MIVLALLGVLLLSVYAYKTKKLTLSGAISAFVVGALISFGLGFKGLLLLAIFFFTSGFWSRFYQERKENEITAKGSTRDGWQVLANGGFAAICALLFSILQDPIYICGFVASLAAANADTWASEVGPLAKRRPIHIIKWKPVDAGTSGAVSAIGTAAAFAGSFIIVVVSIFFWWSSSFASHHLLFSLTLAGFLGNLFDTLVGATGQVLYQCPRCGLETERKIHCNGPTEKKYGLRFLNNDTVNAICTGTGALFGIVAGLILL, MIVSVVIPVAKEGNTLYERIHLINKHFNSLSSSHKFSYEIILVSDIFHKPTLKAMIRLAKENVAKCLLLTQRIGKGGSIKNAIPFSRGDYIVILDADIPVRPIFINQAVVLAMNLGIDLIIANRVYRTHSLLRRVLSVAYNSLVNLLFKTGLRDHQAGLKILSRRAAKIILMKRTRTDGLAYDTEIVVWAKRHGLRYRAVNVVWREQREGSTIPPMRALLTMLADLIMLRLLTLAGKYVALQKLVIGRVIDLGNIHTVGQEFMTVIRASRPKNHLLNVLRKLYIAVALRR
